Data as given in patent US20230220084A1.
Where a chain is given by its changes, count along the chain named. “And” between values parts separate entries of the source, which are not always exact repeats. Equal values may be shown once.

B1: F3′-1295 (bispecific antibody, part only; not given: Fc and unrelated binding arm, not shown: another chain or arm of the molecule; a dimerising Fc or GST)
scFv: QLQLQESGPGLVKPSETLSLTCTVSGFSLTNYGLHWIRQPPGKCLEWIGVIWSGGKTDYNPSLKSRVTISKDTSKNQFSLKLSSVQAADTAVYYCAKYDYDDSLDYWGQGTLVTVSSGGGGSGGGGSGGGGSGGGGSDIQMTQSPSSLSASVGDRVTITCHASQNINFWLSWYQQKPGKIPKLLIYEASNLHTGVPSRFSGSGSGTRFTLTISSLQPEDIATYYCQQSHSYPLTFGCGTKLEIK
B2: 16B08 hybridoma supernatant antibody (antibody, from a related filing, V domains shown)
VH: EVQLQESGPGLVQPSQSLSITCTVSGFSLTNYGLHWVRQSPGKGLEWLGVIWSGGKTDYNTPFKSRLSISKDISKNQVFFKMNSLQPNDTAIYFCAKYDYDDSLDYWGQGTSVTVSS
VL: DIQMNQSPSSLSASLGDTIAITCHASQNINFWLSWYQQKPGNIPKLLIYEASNLHTGVPSRFSGSGSGTRFTLTISSLQPEDIATYYCQQSHSYPLTFGQGTKLEIK
B3: 15A10 hybridoma supernatant antibody (antibody, from a related filing, V domains shown)
VH: EVQLQESGAELVRSGASIKLSCAASAFNIKDYFIHWVRQRPDQGLEWIGWIDPENDDTEYAPKFQDKATMTADTSSNTAYLQLSSLTSADTAVYYCNALWSRGGYFDYWGQGTTLTVSS
VL: EVLLTQSPAIIAASPGEKVTITCSARSSVSYMSWYQQKPGSSPKIWIYGISKLASGVPARFSGSGSGTYFSFTINNLEAEDVATYYCQQRSYYPFTFGSGTKLEIK
B4: AB0010 (bispecific antibody, part only; not given: constant domains, Fc, unrelated scFv, V domains shown, not shown: another chain or arm of the molecule; a dimerising Fc or GST)
VH: QLQLQESGPGLVKPSETLSLTCTVSGFSLTNYGLHWIRQPPGKGLEWIGVIWSGGKTDYNPSLKSRVTISKDTSKNQFSLKLSSVQAADTAVYYCAKYDYDDSLDYWGQGTLVTVSS
VL: B2 VL with N5T, L15V, T18R, I19V, A20T, N42K, I43A, Q100G
B5: AB0191 (bispecific antibody, part only; not given: Fc, unrelated binder arm, linkers, not shown: another chain or arm of the molecule; a dimerising Fc or GST; small tags and cut ends)
scFv: EVQLVESGGGVVQPGGSLRLSCAASGFTFNSFGMHWVRQAPGKCLEWVAFISSGSTSIYYANTVKGRFTISRDNSKNTLYLQMNSLRAEDTAVYYCARDGYPTGGAMDYWGQGTSVTVSSGGGGSGGGGSGGGGSGGGGSDIQMTQSPSSLSASVGDRVTITCKASQDIYNYLSWFQQKPGKAPKPLIYRANILVSGVPSRFSGSGSGQDYTFTISSLQPEDIATYYCLQFDAFPFTFGCGTKLEIK
B6: AB0192 (bispecific antibody, part only; not given: Fc, unrelated binder arm, linkers, not shown: another chain or arm of the molecule; a dimerising Fc or GST; small tags and cut ends)
scFv: B5 scFv with S31A
B7: AB0195 (bispecific antibody, part only; not given: Fc and unrelated binding arm, not shown: another chain or arm of the molecule; a dimerising Fc or GST)
scFv: B5 scFv with S31A, Q143K, F213L
B8: AB0185 (bispecific antibody, part only; not given: Fc, unrelated binder arm, linkers, not shown: another chain or arm of the molecule; a dimerising Fc or GST; small tags and cut ends)
scFv: DIQMTQSPSSLSASVGDRVTITCKASQDIYNYLSWFQQKPGKAPKPLIYRANILVSGVPSRFSGSGSGQDYTFTISSLQPEDIATYYCLQFDAFPFTFGCGTKLEIKGGGGSGGGGSGGGGSGGGGSEVQLVESGGGVVQPGGSLRLSCAASGFTFNSFGMHWVRQAPGKCLEWVAFISSGSTSIYYANTVKGRFTISRDNSKNTLYLQMNSLRAEDTAVYYCARDGYPTGGAMDYWGQGTSVTVSS
B9: AB0189 (bispecific antibody, part only; not given: Fc, unrelated binder arm, linkers, not shown: another chain or arm of the molecule; a dimerising Fc or GST; small tags and cut ends)
scFv: B8 scFv with Q3K, F73L, S158A
B10: AB0186 (bispecific antibody, part only; not given: Fc, unrelated binder arm, linkers, not shown: another chain or arm of the molecule; a dimerising Fc or GST; small tags and cut ends)
scFv: B8 scFv with S158A
B11: Murine F3′-9F11 (bispecific antibody, part only; not given: format, linker, Fc, other arm, V domains shown, not shown: a dimerising Fc or GST)
VH: EVQLQESGGGLVQPGGSRKLSCAASGFTFNSFGMHWVRQAPEKGLEWVAFISSGSTSIYYANTVKGRFTISRDNPKNTLFLQMTSLRSEDTAMYYCARDGYPTGGAMDYWGQGTSVTVSS
VL: DIKMTQSPSSMYASLGERVTITCKASQDIYNYLSWFQLKPGKSPRPLIYRANILVSGVPSKFSGSGSGQDYSLTINSLEYEDLGIYYCLQFDAFPFTFGSGTKLEIK
B12: F3′-1292 (bispecific antibody, part only; not given: Fc and unrelated binding arm, not shown: another chain or arm of the molecule; a dimerising Fc or GST)
scFv: B1 scFv with A88N
B13: F3′-1297 (bispecific antibody, part only; not given: Fc and unrelated binding arm, not shown: another chain or arm of the molecule; a dimerising Fc or GST; small tags and cut ends)
scFv: B1 scFv with A88N, I180A
B14: F3′-1296 (bispecific antibody, part only; not given: Fc and unrelated binding arm, not shown: another chain or arm of the molecule; a dimerising Fc or GST)
scFv: B1 scFv with A88N, K97R
B15: F3′-1304 (bispecific antibody, part only; not given: Fc and unrelated binding arm, not shown: another chain or arm of the molecule; a dimerising Fc or GST; small tags and cut ends)
scFv: DIQMTQSPSSLSASVGDRVTITCHASQNINFWLSWYQQKPGKIPKLLIYEASNLHTGVPSRFSGSGSGTRFTLTISSLQPEDIATYYCQQSHSYPLTFGCGTKLEIKGGGGSGGGGSGGGGSGGGGSQLQLQESGPGLVKPSETLSLTCTVSGFSLTNYGLHWIRQPPGKCLEWIGVIWSGGKTDYNPSLKSRVTISKDTSKNQFSLKLSSVQAADTAVYYCAKYDYDDSLDYWGQGTLVTVSS
B16: F3′-1306 (bispecific antibody, part only; not given: Fc and unrelated binding arm, not shown: another chain or arm of the molecule; a dimerising Fc or GST; small tags and cut ends)
scFv: B15 scFv with I43A, A215N
B17: AB0188 (bispecific antibody, part only; not given: Fc, unrelated binder arm, linkers, not shown: another chain or arm of the molecule; a dimerising Fc or GST; small tags and cut ends)
scFv: B8 scFv with Q3K, F73L

target: hCLEC12A-His fusion protein (human) (UniProt Q5QGZ9); test: SPR (Biacore) 37 C
Sequence (Q5QGZ9 65-265 limits assumed): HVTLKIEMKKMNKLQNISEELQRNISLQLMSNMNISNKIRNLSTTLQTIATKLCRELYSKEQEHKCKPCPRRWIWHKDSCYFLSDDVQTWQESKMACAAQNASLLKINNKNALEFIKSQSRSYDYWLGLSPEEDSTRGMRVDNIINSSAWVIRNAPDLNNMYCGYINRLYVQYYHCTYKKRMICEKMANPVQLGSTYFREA

Row | Binder | Kd
1 | B1 | 1.43 nM and 1.42 nM and 1.44 nM

target: human CLEC12A expressed on cells (human) (UniProt Q5QGZ9); test: flow cytometry, U937 cells
Sequence (Q5QGZ9 whole entry): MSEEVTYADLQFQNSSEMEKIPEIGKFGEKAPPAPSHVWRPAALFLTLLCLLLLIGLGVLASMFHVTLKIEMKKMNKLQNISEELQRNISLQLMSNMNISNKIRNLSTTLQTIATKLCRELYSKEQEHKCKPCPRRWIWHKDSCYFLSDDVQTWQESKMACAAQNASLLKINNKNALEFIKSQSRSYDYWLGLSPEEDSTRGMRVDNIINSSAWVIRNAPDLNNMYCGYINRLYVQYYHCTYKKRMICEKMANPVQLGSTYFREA

Row | Binder | Cell Binding MFI
2 | B2 | 44.1 MFI
3 | B3 | 83.8 MFI

target: human CLEC12A expressed on cells (human) (UniProt Q5QGZ9); test: flow cytometry, HL60 cells

Row | Binder | EC50 | Max MFI | Max binding MFI
4 | B4 | 4.2 nM | 6060 MFI | 
5 | B5 | 0.6 nM |  | 420 MFI
6 | B6 | 0.6 nM |  | 503 MFI
7 | B7 | 0.7 nM |  | 551 MFI
8 | B8 | 0.4 nM |  | 372 MFI
9 | B9 | 0.7 nM |  | 420 MFI
10 | B10 | 0.5 nM |  | 412 MFI

target: hCLEC12A-His fusion protein (human) (UniProt Q5QGZ9); test: SPR (Biacore) 37 C, mean of 4

Row | Binder | Kd | koff | kon
11 | B1 | 1.43 nM | 0.000594 s⁻¹ | 415000 M⁻¹ s⁻¹

target: hCLEC12A-His fusion protein (human) (UniProt Q5QGZ9); test: SPR 37 C, hybridoma supernatant

Row | Binder | Kd | koff
12 | B3 | 15.8 nM | 0.00223 s⁻¹

target: cynomolgus CLEC12A expressed on RMA cells (cynomolgus monkey); test: flow cytometry, RMA-cCLEC12A cells
Sequence (chain, as listed by the source): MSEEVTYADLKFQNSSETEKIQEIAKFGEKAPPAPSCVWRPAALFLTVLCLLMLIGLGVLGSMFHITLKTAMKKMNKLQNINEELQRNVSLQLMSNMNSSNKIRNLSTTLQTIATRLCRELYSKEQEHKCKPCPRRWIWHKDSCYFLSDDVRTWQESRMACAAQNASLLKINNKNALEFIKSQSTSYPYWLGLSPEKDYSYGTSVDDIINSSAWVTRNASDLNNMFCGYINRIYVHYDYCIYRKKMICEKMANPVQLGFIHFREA

Row | Binder | Cell Binding MFI
13 | B2 | 1130 MFI
14 | B3 | 167 MFI

target: human CLEC12A expressed on cells (human) (UniProt Q5QGZ9); test: flow cytometry, RMA-hCLEC12A cells

Row | Binder | Cell Binding MFI
15 | B2 | 819 MFI
16 | B3 | 372 MFI

target: hCLEC12A-His fusion protein (human) (UniProt Q5QGZ9); test: SPR, analyte glycosylated hCLEC12A

Row | Binder | Kd | koff | kon
17 | B11 | 0.96 nM | 0.00111 s⁻¹ | 1.15e+06 M⁻¹ s⁻¹

target: De-sialylated hCLEC12A (human) (UniProt Q5QGZ9); test: SPR, analyte de-sialylated hCLEC12A
Sequence (Q5QGZ9 65-265 limits assumed): as the sequence (Q5QGZ9 65-265 limits assumed) above

Row | Binder | Kd | koff | kon
18 | B11 | 0.62 nM | 0.00098 s⁻¹ | 1.58e+06 M⁻¹ s⁻¹

target: hCLEC12A-His fusion protein (human) (UniProt Q5QGZ9); test: SPR screening, semi-purified protein

Row | Binder | Kd | koff | kon
19 | B12 | 3.22 nM | 0.0013 s⁻¹ | 402000 M⁻¹ s⁻¹
20 | B1 | 2.94 nM | 0.00153 s⁻¹ | 520000 M⁻¹ s⁻¹
21 | B13 | 2.79 nM | 0.00141 s⁻¹ | 504000 M⁻¹ s⁻¹
22 | B14 | 1.34 nM | 0.00117 s⁻¹ | 874000 M⁻¹ s⁻¹
23 | B5 | 1.73 nM | 0.00126 s⁻¹ | 728000 M⁻¹ s⁻¹
24 | B6 | 1.26 nM | 0.00138 s⁻¹ | 1.09e+06 M⁻¹ s⁻¹
25 | B7 | 1.68 nM | 0.00129 s⁻¹ | 766000 M⁻¹ s⁻¹
26 | B15 | 2.7 nM | 0.0013 s⁻¹ | 480000 M⁻¹ s⁻¹
27 | B16 | 5.16 nM | 0.0489 s⁻¹ | 9.48e+06 M⁻¹ s⁻¹
28 | B8 | 1.4 nM | 0.00101 s⁻¹ | 726000 M⁻¹ s⁻¹
29 | B9 | 1.21 nM | 0.00127 s⁻¹ | 1.04e+06 M⁻¹ s⁻¹
30 | B17 | 1.58 nM | 0.000901 s⁻¹ | 569000 M⁻¹ s⁻¹
31 | B10 | 1.04 nM | 0.00117 s⁻¹ | 1.12e+06 M⁻¹ s⁻¹

target: human CLEC12A expressed on cells (human) (UniProt Q5QGZ9); test: flow cytometry, hCLEC12A+Ba/F3 cells

Row | Binder | EC50 | Max MFI | Max binding MFI
32 | B4 | 6.13 nM | 54800 MFI | 
33 | B1 | 26.1 nM | 48000 MFI | 
34 | B5 | 0.6 nM |  | 7940 MFI
35 | B6 | 0.7 nM |  | 10200 MFI
36 | B7 | 0.6 nM |  | 10800 MFI
37 | B8 | 0.7 nM |  | 8020 MFI
38 | B9 | 1.3 nM |  | 8760 MFI
39 | B10 | 0.7 nM |  | 8160 MFI

target: De-glycosylated hCLEC12A (human) (UniProt Q5QGZ9); test: SPR, analyte de-glycosylated hCLEC12A
Sequence (Q5QGZ9 65-265 limits assumed): as above

Row | Binder | Kd | koff | kon
40 | B11 | 0.34 nM | 0.000374 s⁻¹ | 1.11e+06 M⁻¹ s⁻¹

target: human CLEC12A expressed on cells (human) (UniProt Q5QGZ9); test: flow cytometry on RMA-hCLEC12A cells

Row | Binder | EC50 (read off the curve)
41 | B15 | 10 nM
